Reference: patent US11026994B2, “Syndecan-2 compositions and methods of use” (ORBSEN THERAPEUTICS LIMITED, priority 2013, dated 2021)
“Also recorded” adds a separate entry of the source.

Experiments:
SDC2 RNA = SDC2 RNA levels in treated cell populations; format: cell-based, human
From the text: HDAC inhibitors and sirtuins may be used to increase SDC2 expression. […] The sirtuin family of HDACs, including SIRT1 and SIRT2, may be used to increase SDC2 expression. The sirtuins are NAD-dependant HDACs and are reported to deacetylate p53 protein—acetylation of p53 is reported to be important for its transactivation/transcription activity. Thus sirtuins are key regulators of p53 activity. Examples of sirtuins include nicotinamide, sirtinol, EX-527 and tenovins. […] DMSO is also reported to contain HDAC inhibitor (p53 activation) capacity.
DMOG is a hypoxia mimetic, and other hypoxia mimetics for use in the invention include cobalt chloride, EDHB and desferrioxamine. Hypoxia is reported to stimulate p53 (via ATR/CHK1 kinases).
We tested various HDAC inhibitors for their effect on SDC2 expression on human cell populations initially isolated on the basis of SDC2 expression and maintained subsequently in culture.

SDC2 secretion = SDC2 secretion after environmental toxin BPDE; format: cell-based, human; details: 600 nM BPDE
[1] = system: SDC2 shedding from human MSCs; assay: SDC2 ELISA of supernatants of Nutlin-3a treated MSCs; format: cell-based; details: 24 h
Protocol: MSCs were plated at a density of 10^5 cells per well of a 6-well plate (Nunc) in complete media (α-MEM, 10% FBS) and left to adhere overnight. Medium was then exchanged for serum-free containing Nutlin-3a or DMSO as a carrier control. 24 h post-induction the cells were harvested for both RNA and protein and the serum-free supernatant was collected for ELISA.
The levels of human Syndecan-2 was measured in supernatants collected from hMSCs using commercially available ELISA assays (CUSABIO). The assay was conducted as per the manufacturer's instructions. Calibration curves were prepared using purified standards for SDC2. Curve fitting was accomplished by sigmoidal logisitic regression following manufacturer's instructions.
24 h post-treatment with Nutlin-3a (5, 10, 20 μM) or DMSO carrier control (5, 20 μM), the supernatant from MSCs was collected, centrifuged for 5 min at 1500 rpm and subjected to SDC2 ELISA including unconditioned serum-free media as an additional control.
MSCs treated with either Nutlin-3a or DMSO as a carrier control for 24 h in serum-free media. The serum-free supernatants were collected and a commercially available SDC2 ELISA kit was used to detect shed SDC2 present in the supernatants.

Du145 = assay: Cancer cell migration toward conditioned medium (xCELLigence RTCA); format: cell-based; details: Recombinant SDC2 500 ng/ml
From the text: (§1) Cell migration is a critical parameter for in vitro cell culture-related studies. It is necessary to monitor the dynamic changes of cell populations under different conditions. Using a real time cell analyser (RTCA, xCELLigence, Roche) which is an impedance-based device we can monitor the following properties in real time: proliferation, migration and cell adherence. Such properties are involved in cancer evolution. We used this method to establish the migratory capacity of cancer cells toward conditioned medium. The model is accepted as predictive of efficacy in cancer therapy—reduced migration in the model indicates anti-cancer properties.
(§2) In our investigations, cell migration was determined using 16-well CIM plates read in real-time using the aforementioned xCELLigence device. For these studies a variety of cancer cell lines were used from breast cancer (MDA-MB-231, MDA-MB-486, MCF-10A), prostate cancer (DU145), pancreas cancer (SU-86-86) and colon carcinoma (HCT116).

MDA-MB-231 = assay: as above; format: cell-based; details: one symbol per experiment
From the text: as §1, §2

SU-86-86 = assay: as above; format: cell-based
From the text: as §1, §2

HCT116 = assay: as above; format: cell-based; set-up: key: ↑: increased migration compared to conditioned media; ↓: decreased cell migration compared to conditioned media; —: no changed compared to conditioned media
From the text: as §1, §2

[2] = system: NFκB activation by TNFα and IL1β; assay: κB luciferase assay in A549 cells pretreated with SDC2 recombinant protein; format: cell-based; details: 10 ng/mL TNF-α/IL-1β, 24 hours
Protocol: A549 cells stably transduced with κB luciferase plasmid were pretreated for 1 hour with SDC2 recombinant protein. 10 ng/mL TNF-α/IL-1β was added to the media and luciferase assay performed after 24 hours. The results are shown in FIG. 5. ***=p<0.0001 with respect to 0 ng/mL S2
A549 cells stably transduced with KB luciferase plasmid and treated for 24 hours with recombinant SDC2. In the top panel: cytokines were added to the media for 24 hours and luciferase assay performed. In the bottom panel: media was replaced before addition of cytokines for 24 hours. *=p<0.01 with respect to 0 ng/mL S2; ***=p<0.0001 with respect to 0 ng/mL S2; +++=p<0.0001 with respect to 100 ng/mL S2.

[3] = at 24 hrs, human cell populations isolated on SDC2 expression
[4] = other series of tests, time not given

2-pyrrolidinone-n-butyric acid [PBA]
SDC2 RNA levels (SDC2 RNA; [3]): increased SDC2 RNA levels

OC1c2cc3ccc4cccc5ccc(c2C2OC2C1O)c3c45 (stereo not drawn) [BPDE, benzo[a]pyrene-7,8-diol-9,10-epoxide]
increase of SDC2 secretion (SDC2 secretion): approximately 3 fold

COC(=O)CNC(=O)C(=O)OC [DMOG, Dimethyloxaloylglycine]
SDC2 RNA levels (SDC2 RNA; [4]): very robust increase in SDC2 RNA

C[S+](C)[O-] [DMSO]
SDC2 RNA levels (SDC2 RNA; [4]): increased SDC2 RNA levels

COc1ccc(C2=N[C@@H](c3ccc(Cl)cc3)[C@@H](c3ccc(Cl)cc3)N2C(=O)N2CCNC(=O)C2)c(OC(C)C)c1 [Nutlin-3a]
SDC2 shedding ([1]; 5, 10, 20 μM, compared to DMSO control): dose-dependent increase in SDC2 shedding | amount of shed SDC2 ([1]; Nutlin-3a 20 μM, serum-free, average of three MSC donors): ~1000 pg/mL

O=C1CCc2c(ccc3ccccc23)O1 [Splitomicin]
SDC2 RNA levels (SDC2 RNA; [3]): increased SDC2 RNA levels; also recorded: greatest stimulation

CCCC(CCC)C(=O)O [Valproic Acid]
SDC2 RNA levels (SDC2 RNA; [3]): increased SDC2 RNA levels

B1: Recombinant SDC2: recombinant Syndecan-2 (SDC2) protein (protein, UniProt P34741 19-201, looked up)
Syndecan-2: ESRAELTSDKDMYLDNSSIEEASGVYPIDDDDYASASGSGADEDVESPELTTSRPLPKILLTSAAPKVETTTLNIQNKIPAQTKSPEETDKEKVHLSDSERKMDPAEEDTNVYTEKHSDSLFKRTEVLAAVIAGGVIGFLFAIFLILLLVYRMRKKDEGSYDLGERKPSSAAYQKAPTKEFYA
Cancer Cell Migration (Du145): ↓— | Cancer Cell Migration (MDA-MB-231; Recombinant SDC2 100 ng/ml): ↓↓ | Cancer Cell Migration (MDA-MB-231; Recombinant SDC2 500 ng/ml): ↓↓↓↓↓— | Cancer Cell Migration (SU-86-86; Recombinant SDC2 100 ng/ml): ↓↑ | Cancer Cell Migration (SU-86-86; Recombinant SDC2 500 ng/ml): ↓↓ | Cancer Cell Migration (SU-86-86; Recombinant SDC2 1000 ng/ml): ↓↑ | Cancer Cell Migration (HCT116; Recombinant SDC2 100 ng/ml): ↓ | Cancer Cell Migration (HCT116; Recombinant SDC2 500 ng/ml): ↓ | Cancer Cell Migration (HCT116; Recombinant SDC2 1000 ng/ml): ↓ | NFκB activation by TNFα and IL1β [2]: suppressed NFκB activation
